Source: US20190038623A1
One block for each substance: values may come before it.

Legend:
[1] = molecular target: human complement component C5 (human) (UniProt P01031); experiment: cell-based or functional assay
[2] = molecular target: complement component C3 (human) (UniProt P01024); experiment: cell-based or functional assay

- Inhibition (%) of CAP activity, CAP Wieslab assay, Experiment 2, Anti-C5 0.781 µg/mL, Compound 1 0 µM [1]: 8.1%
- Inhibition (%) of CAP activity, CAP Wieslab assay, Experiment 2, Anti-C5 1.56 µg/mL, Compound 1 0 µM [1]: 20%
- Inhibition (%) of CAP activity, CAP Wieslab assay, Experiment 2, Anti-C5 3.13 µg/mL, Compound 1 0 µM [1]: 46%
- Inhibition (%) of CAP activity, CAP Wieslab assay, Experiment 2, Anti-C5 6.25 µg/mL, Compound 1 0 µM [1]: 61%
- Inhibition (%) of CAP activity, CAP Wieslab assay, Experiment 2, Anti-C5 12.5 µg/mL, Compound 1 0 µM [1]: 75%
- Inhibition (%) of CAP activity, CAP Wieslab assay, Experiment 2, Anti-C5 25 µg/mL, Compound 1 0 µM [1]: 85%
- Inhibition (%) of CAP activity, CAP Wieslab assay, Experiment 2, Anti-C5 50 µg/mL, Compound 1 0 µM [1]: 90%
- Inhibition (%) of CAP activity, CAP Wieslab assay, Experiment 3, Anti-C5 0.781 µg/mL, Compound 1 0 µM [1]: 10%
- Inhibition (%) of CAP activity, CAP Wieslab assay, Experiment 3, Anti-C5 1.56 µg/mL, Compound 1 0 µM [1]: 16%
- Inhibition (%) of CAP activity, CAP Wieslab assay, Experiment 3, Anti-C5 3.13 µg/mL, Compound 1 0 µM [1]: 31%
- Inhibition (%) of CAP activity, CAP Wieslab assay, Experiment 3, Anti-C5 6.25 µg/mL, Compound 1 0 µM [1]: 45%
- Inhibition (%) of CAP activity, CAP Wieslab assay, Experiment 3, Anti-C5 12.5 µg/mL, Compound 1 0 µM [1]: 64%
- Inhibition (%) of CAP activity, CAP Wieslab assay, Experiment 3, Anti-C5 25 µg/mL, Compound 1 0 µM [1]: 79%
- Inhibition (%) of CAP activity, CAP Wieslab assay, Experiment 3, Anti-C5 50 µg/mL, Compound 1 0 µM [1]: 90%
- Inhibition (%) of CAP activity, CAP Wieslab assay, Experiment #1, Anti-C5 0.547 µg/mL, Compound 1 0 µM [1]: 11%
- Inhibition (%) of CAP activity, CAP Wieslab assay, Experiment #1, Anti-C5 1.09 µg/mL, Compound 1 0 µM [1]: 11%
- Inhibition (%) of CAP activity, CAP Wieslab assay, Experiment #1, Anti-C5 2.19 µg/mL, Compound 1 0 µM [1]: 27%
- Inhibition (%) of CAP activity, CAP Wieslab assay, Experiment #1, Anti-C5 4.38 µg/mL, Compound 1 0 µM [1]: 47%
- Inhibition (%) of CAP activity, CAP Wieslab assay, Experiment #1, Anti-C5 8.75 µg/mL, Compound 1 0 µM [1]: 60%
- Inhibition (%) of CAP activity, CAP Wieslab assay, Experiment #1, Anti-C5 17.5 µg/mL, Compound 1 0 µM [1]: 76%
- Inhibition (%) of CAP activity, CAP Wieslab assay, Experiment #1, Anti-C5 35 µg/mL, Compound 1 0 µM [1]: 87%
Substance: murine monoclonal antibody to human C5, isotype IgG1K, product No. A217 from Quidel

- IC50 (µM), Inhibition of C3 Fragment deposition on artificial PNH cells (flow cytometry, anti-C3c staining, N = 2) [2]: 2.2 µM
- IC50 (µM), Inhibition of C3 Fragment deposition on rabbit erythrocytes (flow cytometry, 20% C5-depleted normal human serum), N = 1 [2]: 1.4 µM
Substance: Compstatin (peptide)
- Inhibition (%) of CAP activity, CAP-mediated hemolysis of rabbit erythrocytes, Experiment 2, Compstatin 0.469 µM, Compound 1 0 µM [2]: 6.9%
- Inhibition (%) of CAP activity, CAP-mediated hemolysis of rabbit erythrocytes, Experiment 2, Compstatin 0.934 µM, Compound 1 0 µM [2]: 6%
- Inhibition (%) of CAP activity, CAP-mediated hemolysis of rabbit erythrocytes, Experiment 2, Compstatin 1.88 µM, Compound 1 0 µM [2]: 10%
- Inhibition (%) of CAP activity, CAP-mediated hemolysis of rabbit erythrocytes, Experiment 2, Compstatin 3.75 µM, Compound 1 0 µM [2]: 15%
- Inhibition (%) of CAP activity, CAP-mediated hemolysis of rabbit erythrocytes, Experiment 2, Compstatin 7.5 µM, Compound 1 0 µM [2]: 41%
- Inhibition (%) of CAP activity, CAP-mediated hemolysis of rabbit erythrocytes, Experiment 2, Compstatin 15 µM, Compound 1 0 µM [2]: 80%
- Inhibition (%) of CAP activity, CAP-mediated hemolysis of rabbit erythrocytes, Experiment 2, Compstatin 30 µM, Compound 1 0 µM [2]: 98%
- Inhibition (%) of CAP activity, CAP-mediated hemolysis of rabbit erythrocytes, Experiment 3, Compstatin 0.469 µM, Compound 1 0 µM [2]: 13%
- Inhibition (%) of CAP activity, CAP-mediated hemolysis of rabbit erythrocytes, Experiment 3, Compstatin 0.934 µM, Compound 1 0 µM [2]: 17%
- Inhibition (%) of CAP activity, CAP-mediated hemolysis of rabbit erythrocytes, Experiment 3, Compstatin 1.88 µM, Compound 1 0 µM [2]: 25%
- Inhibition (%) of CAP activity, CAP-mediated hemolysis of rabbit erythrocytes, Experiment 3, Compstatin 3.75 µM, Compound 1 0 µM [2]: 40%
- Inhibition (%) of CAP activity, CAP-mediated hemolysis of rabbit erythrocytes, Experiment 3, Compstatin 7.5 µM, Compound 1 0 µM [2]: 63%
- Inhibition (%) of CAP activity, CAP-mediated hemolysis of rabbit erythrocytes, Experiment 3, Compstatin 15 µM, Compound 1 0 µM [2]: 97%
- Inhibition (%) of CAP activity, CAP-mediated hemolysis of rabbit erythrocytes, Experiment 3, Compstatin 30 µM, Compound 1 0 µM [2]: 98%
- Inhibition (%) of CAP activity, CAP-mediated hemolysis of rabbit erythrocytes, Experiment 4, Compstatin 0.469 µM, Compound 1 0 µM [2]: 9%
- Inhibition (%) of CAP activity, CAP-mediated hemolysis of rabbit erythrocytes, Experiment 4, Compstatin 0.934 µM, Compound 1 0 µM [2]: 12%
- Inhibition (%) of CAP activity, CAP-mediated hemolysis of rabbit erythrocytes, Experiment 4, Compstatin 1.88 µM, Compound 1 0 µM [2]: 22%
- Inhibition (%) of CAP activity, CAP-mediated hemolysis of rabbit erythrocytes, Experiment 4, Compstatin 3.75 µM, Compound 1 0 µM [2]: 34%
- Inhibition (%) of CAP activity, CAP-mediated hemolysis of rabbit erythrocytes, Experiment 4, Compstatin 7.5 µM, Compound 1 0 µM [2]: 64%
- Inhibition (%) of CAP activity, CAP-mediated hemolysis of rabbit erythrocytes, Experiment 4, Compstatin 15 µM, Compound 1 0 µM [2]: 98%
- Inhibition (%) of CAP activity, CAP-mediated hemolysis of rabbit erythrocytes, Experiment 4, Compstatin 30 µM, Compound 1 0 µM [2]: 99%
- Inhibition (%) of CAP activity, CAP-mediated hemolysis of rabbit erythrocytes, Experiment #1, Compstatin 0.469 µM, Compound 1 0 µM [2]: 7.3%
- Inhibition (%) of CAP activity, CAP-mediated hemolysis of rabbit erythrocytes, Experiment #1, Compstatin 0.934 µM, Compound 1 0 µM [2]: 3.6%
- Inhibition (%) of CAP activity, CAP-mediated hemolysis of rabbit erythrocytes, Experiment #1, Compstatin 1.88 µM, Compound 1 0 µM [2]: 8.6%
- Inhibition (%) of CAP activity, CAP-mediated hemolysis of rabbit erythrocytes, Experiment #1, Compstatin 3.75 µM, Compound 1 0 µM [2]: 17%
- Inhibition (%) of CAP activity, CAP-mediated hemolysis of rabbit erythrocytes, Experiment #1, Compstatin 7.5 µM, Compound 1 0 µM [2]: 38%
- Inhibition (%) of CAP activity, CAP-mediated hemolysis of rabbit erythrocytes, Experiment #1, Compstatin 15 µM, Compound 1 0 µM [2]: 65%
- Inhibition (%) of CAP activity, CAP-mediated hemolysis of rabbit erythrocytes, Experiment #1, Compstatin 30 µM, Compound 1 0 µM [2]: 98%
- Inhibition (%) of CAP-mediated hemolysis of PNH erythrocytes, Experiment 2, Compstatin 4.69 µM alone (Compound 1 0 µM) [2]: 0%
- Inhibition (%) of CAP-mediated hemolysis of PNH erythrocytes, Experiment 2, Compstatin 9.38 µM alone (Compound 1 0 µM) [2]: 0%
- Inhibition (%) of CAP-mediated hemolysis of PNH erythrocytes, Experiment 2, Compstatin 18.8 µM alone (Compound 1 0 µM) [2]: 0%
- Inhibition (%) of CAP-mediated hemolysis of PNH erythrocytes, Experiment 2, Compstatin 37.5 µM alone (Compound 1 0 µM) [2]: 0%
- Inhibition (%) of CAP-mediated hemolysis of PNH erythrocytes, Experiment 2, Compstatin 75 µM alone (Compound 1 0 µM) [2]: 10%
- Inhibition (%) of CAP-mediated hemolysis of PNH erythrocytes, Experiment 2, Compstatin 150 µM alone (Compound 1 0 µM) [2]: 71%
- Inhibition (%) of CAP-mediated hemolysis of PNH erythrocytes, Experiment 2, Compstatin 300 µM alone (Compound 1 0 µM) [2]: 99%
- Inhibition (%) of CAP-mediated hemolysis of PNH erythrocytes, Experiment #1, Compstatin 4.69 µM alone (Compound 1 0 µM) [2]: 0%
- Inhibition (%) of CAP-mediated hemolysis of PNH erythrocytes, Experiment #1, Compstatin 9.38 µM alone (Compound 1 0 µM) [2]: 0%
- Inhibition (%) of CAP-mediated hemolysis of PNH erythrocytes, Experiment #1, Compstatin 18.8 µM alone (Compound 1 0 µM) [2]: 0%
- Inhibition (%) of CAP-mediated hemolysis of PNH erythrocytes, Experiment #1, Compstatin 37.5 µM alone (Compound 1 0 µM) [2]: 0%
- Inhibition (%) of CAP-mediated hemolysis of PNH erythrocytes, Experiment #1, Compstatin 75 µM alone (Compound 1 0 µM) [2]: 9%
- Inhibition (%) of CAP-mediated hemolysis of PNH erythrocytes, Experiment #1, Compstatin 150 µM alone (Compound 1 0 µM) [2]: 86%
- Inhibition (%) of CAP-mediated hemolysis of PNH erythrocytes, Experiment #1, Compstatin 300 µM alone (Compound 1 0 µM) [2]: 98%
